Laboratory results: US20210009713A1 (MIDWESTERN UNIVERSITY, published 2021)
Where two headings read alike, the source gives them in different places.

T1: aspartyl (asparaginyl) β-hydroxylase (ASPH) (UniProt Q12797 75-758, limits assumed)
T1 construct: also called ASPH protein
T1 sequence (looked up): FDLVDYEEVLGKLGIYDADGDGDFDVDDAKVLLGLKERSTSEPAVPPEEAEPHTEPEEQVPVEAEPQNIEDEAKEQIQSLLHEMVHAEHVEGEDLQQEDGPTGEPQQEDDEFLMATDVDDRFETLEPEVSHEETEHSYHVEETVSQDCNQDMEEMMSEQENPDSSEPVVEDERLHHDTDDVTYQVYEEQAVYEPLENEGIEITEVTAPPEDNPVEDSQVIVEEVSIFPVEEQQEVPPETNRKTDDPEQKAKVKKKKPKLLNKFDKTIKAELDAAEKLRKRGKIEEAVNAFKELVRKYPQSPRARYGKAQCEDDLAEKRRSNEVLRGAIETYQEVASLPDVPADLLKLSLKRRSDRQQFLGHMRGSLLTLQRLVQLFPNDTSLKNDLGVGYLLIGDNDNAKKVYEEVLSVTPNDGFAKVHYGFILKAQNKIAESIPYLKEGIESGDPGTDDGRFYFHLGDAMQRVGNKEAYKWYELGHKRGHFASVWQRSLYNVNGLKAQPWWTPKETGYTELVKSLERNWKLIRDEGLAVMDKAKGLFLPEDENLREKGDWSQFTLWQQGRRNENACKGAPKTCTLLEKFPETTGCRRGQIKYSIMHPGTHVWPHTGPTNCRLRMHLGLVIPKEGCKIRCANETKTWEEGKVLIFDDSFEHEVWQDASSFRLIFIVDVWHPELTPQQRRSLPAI


Molecular target: T1, aspartyl (asparaginyl) β-hydroxylase …
Test: SPR, antibody captured via Protein G, ASPH as analyte
Protocol: The interaction between ASPH and a set of 6 antibodies were characterized by Essai Sciences LLC (Stillwater, Okla.) on a SensiQ Pioneer SPR Platform. The COOH2 sensor chip, which contains a planar dextran surface, was used for target immobilization. The buffer system was 10 mM HEPES, pH 7.4, 150 mM NaCl, and 0.01% Tween-20.
All channels of a COOH2 sensor chip were activated with a five-minute injection of 40 mM EDC and 10 mM NHS. Protein G was then injected across channels 1 and 2. 1 M ethanolamine, pH 8.0 was then injected across all three channels. Approximately 1000 response units of Protein G were captured on both channels 1 and 2 (FIG. 18). For each antibody-ASPH interaction, the antibody was injected on channel 1, leaving channels 2 and 3 as a Protein G reference and empty channel reference, respectively. After antibody capture, ASPH was injected at a single concentration. Following injection of ASPH, all three channels were injected with 10 mM NaOH for one minute to regenerate the Protein G surface. This was done twice for each antibody, at each tested concentration of ASPH.

Binder	Kd [nM]	koff [s⁻¹]	kon [M⁻¹ s⁻¹]	Kd (record 2) [nM]
9H2/9K3 (antibody, part only; not given: kappa light chain, V domains shown, part only) VH: QSLEESGGDLVKPGASLTLTCKASGFDFISNAMCWVRQAPGKGPEWIACIDNGDGSTDYATWAKGRFTISKTSSTTVTLQMTSLTAADTATYFCTRNFNLWGQGTLTVSSGQPKAPSVFPLAP	61.9	0.00185	29800	60
5H4/5K3 (antibody, V domains shown, The entries are translated variable regions that still carry the leader and the start of the constant region (GQPK... / GDPV...)) VH: QSLEESGGDLVKPGASLTLTCKASGFDFSSNAMCWVRQAPGKGPEWIACIDNGDGSTDYATWAKGRFTISKTSSTTVTLQMTSLTAADTATYFCTRNFNLWGQGTLVTVSS VL: AQVLTQTASSVSAAVGGTVTISCQSSQSVYDNNRLAWFQQKPGQPPKLLIYETSKLASGVPLRFKGSGSGTQFTLTISDLECDDAATYYCLGSYSGYIYTFGGGTEVVVKG	144	0.00243	16800	–
